From a protein production outcome set (Wang et al. 2014)

Assay: label from the status in PepcDB records
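Further: failed if final PepcDB status was selected cloned or expressed and not failed if soluble or beyond.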

Question: For “MAANDRAAAPGKSGGSAGADGLMRASLSAVAPGTSLRDGLERVLRGNTGGLIVLGSDKTVESMCTGGFVLDVEFTATRLRELCKLDGGIVLSSDLSKILRAGVQLLPDPTIPTEETGTRHRTADRVSKQVGFPVVSVSQSMRLIALYVDGQRRVLEDSAAILSRANQALATLERYKLRLDEVAGTLSALEIEDLVTVRDVSAVAQRLEMVRRIATEIAEYVVELGTDGRLLALQLDELIAGVEPERELVVRDYVPEPTAKRSRTVDEALAELDKLSHAELLELSTVARALGYTGSPETLDSAVSPRGFRLLAKVPRLPGAIIDRLVEHFGGLQKLLAASVDDLQTVDGVGEARARSVREGLSRLAESSILERYV”, which protein production is on record?
Answer: The protein production was “not failed”.

Question: Which protein production does the source give for “MSLEEELRRETLKWLERIEERVKEIEGDEGFMRNIEAYISDSRYFLEKGDLVRAFECVVWAWAWLEIGLEVGKLHETAEGHHHHHH” here?
Answer: The protein production was “not failed”.

Question: Which protein production does the source give for “MTPNAPSTFNNMLLIAVFECRKFLFNLRGMIALIAFALVWGMLLLYPIQGASTLLMQPNIKDLIDGLFGNNALNVLFDWPVAEMAIFWCFALYLFPMFSILIAADQFSSDKTRGTLRFYTIRTSKDSLLFGRFLGQILIQGLLILLTILATIALALSRDASLLLPAISSGALVGVNLLIVILPFTAVMTLLSLYASTARQAMVLATILWTVVSIALLILGNESRLFEGLQWLLPGAQLSNMINTNGLNSLAYAPIPLLQTAIALFLGRIYFQRSQL” here?
Answer: The protein production was “failed”.

Question: Which protein production does the source give for “MAILFAVVARGTTILAKHAWCGGNFLEVTEQILAKIPSENNKLTYSHGNYLFHYICQDRIVYLCITDDDFERSRAFNFLNEIKKRFQTTYGSRAQTAPPYAMNSEFSSVLAAQLKHHS” here?
Answer: Its protein production is “not failed”.

Question: Which protein production does the source give for “MVERLLEIIERSLRKCPWLEKQSIETLLEALASEIEEVAEAVKKNDLANLEEEIGDLIYDALLVAAVAQRDYGIDLESAIQKVVEKISHRKPWLFWEEKISLEEAEKIWKERKKKI” here?
Answer: The protein production was “not failed”.

Question: Which protein production does the source give for “MRQPPILSEALRLFFPLAALHGAVWPFLWIVIGGYALPFANAVPPSQWHAHEMIFGTYGMALAGFLGSAVPEWTDTKAAAGRTLLCLAGLWLPGRLIGFVGADTWSLLAGFFDLAFLLALSVLIGKAMLVRRTTKHLAFLVWLILFAAAETGVRYAWWMGDLEFAVRCLEAALCIFIVLFSLSAARINVVVINLALDPSGETTPYRPHPGRQHMAGAMVTLYMAAKLLFPESDVCAWLALAAGAAFFDRLAEWFIGRAVFRTEVLLLALGNAFAGAGFLALGATRLGFSVTSAAGLHLLSVGALGCAIMAVFIIAGLRHTGRDLKHLPWQAHAAAALMVMAGLTRILPEFDVAAVLSPYHHGLSAILWAASFGIWLQGFLPFMRAPGTDEAGACG” here?
Answer: Its protein production is “failed”.

Question: Which protein production does the source give for “MRQFPPASSTVISVNFEELQAFVGRNPMLSLALVGLTIAIIVTEIARLFRGYRALKPAELTRLINSENALVIDLSPTADFEKGHIAGSRNVALAKFDPAGKLLANAKSSPVVVVCRSGNASAGAAKTLKKAGFEQVYWLEGGIAAWQMAELPLVKGRA” here?
Answer: The protein production was “failed”.

Question: Which protein production does the source give for “MRAHTLSRQLREGNLFAEQCPSREVLKHVTSRWGVLILVALRDGTHRFSDLRRKMGGVSEKMLAQSLQALEQDGFLNRVSYPVVPPHVEYSLTPLGEQVSDKVAALADWIELNLPQVLAQRERLSDGG” here?
Answer: Its protein production is “not failed”.

Question: Which protein production does the source give for “MLFGGNRNKMLKTIITSAITYSSTAIDLLIILMLFFAKIKDKKGIRDIYIGQFLGSDVLILVSLFFAFILHYVPDKRLLGLLGIIPIFLGLKALIFGDSDGEKMANKELNNNNNKMNLIKTLMFITIVSCGADNIGLFVPYFISLTPLNLVITLIVFLIMIFLLVFVAQKLANVPTIGEVLEKYSRWFIGFVYIFIGGSVLIENGSIQFIINLFK” here?
Answer: Its protein production is “failed”.

Question: For “MATTNYSMIFIGNLQVAVDRSSLYESSDYSSFVARECLNKDSAMKPYDIFIFEKDEHFSVEDHYTAGNSSNESNTRPSDIFLKKKLVGLNPSILQLNREKRKATLKFSGDNKDILQSTLSSSKNINLSGGLFVSREYENKYVKFGARMRCDLVNRMKDVTLAWHESVSSTSDKNVELSSVENHKIAPKADGPGNSSNESSSSPFDIFLKKKVMRLKPSFLELNREKKKAAKGFSGIVIRPGMVLLKNYLSINNQVMIVNKCRQLGLGEGGFYQPGFQDGGLLHLKMMCLGKNWDCQTRRYGEIRPIDGSVPPRIPVEFSQLVEKAIKESKSLVATNSNETKGGDEIPLLLPDICVVNFYTSTGKLGLHQDKGESKKSLRKGLPIVSFSIGDSAEFLYGDQKDVDKADTLILESGDVLIFGERSRNVFHGVRSIRKILPPRLFFRKQIFNQVV”, which protein production is on record?
Answer: Its protein production is “failed”.

Question: With “MKISFSEIIHNALKEDLGDKGDITTNSILINEKVNFAINTRENLVVCGIPILEEVFNMNKEHVKYEIHKKDGDITGKNSTLVSGEALAIYLLPIERVILNFIQHASGIASITRQFVDEVSGTKVKIRSTRKTTPGLRMLDKYSVCIGGGESYRDNLCDGVLIKDNHIASCGSITLAIQRLRKNLKNEYIAIECDNISQVEESLSNNVDMILLDNMSISEIKKAVDIVNGKSVLEVSGCVNIRNVRNIALTGVDYISIGCITNSFQNKDIGLDIEYNNNK” as the sequence, how does the protein production read?
Answer: The protein production was “not failed”.

Question: For “KIIHIDCDCFYAALEMRDDPSLRGKALAVGGSPDKRGVVATCSYEARAYGVRSAMAMRTALKLCPDLLVVRPRFDVYRAVSKQIHAIFRDYTDLIEPLSLDEAYLDVSASPHFAGSATRIAQDIRRRVAEELHITVSAGVAPNKFLAKIASDWRKPDGLFVITPEQVDGFVAELPVAKLHGVGKVTAERLARMGIRTCADLRQGSKLSLVREFGSFGERLWGLAHGIDERPVEVDSRRQSVSVECTFDRDLPDLAACLEELPTLLEELDGRLQRLDGSYRPDKPFVKLKFHDFTQTTVEQSGAGRDLESYRQLLGQAFARGNRPVRLIGVGVRLLDLQGAHEQLR”, which protein production is on record?
Answer: Its protein production is “failed”.

Question: Which protein production does the source give for “MARRPFSSQSLVLIVIAIAINMIGGQLISMLKLPIFLDSIGTLISAVLLGPFIGMLTGLLTNLLWGLLTDPIAAAFAPVAMVIGLVAGWLARAGWFRTLPKVIVSGVVITLAVTLVAVPLRTALFGGVTGSGADLFVAWMHSMGQNLVESVAITVIGANLVDKILTAIIVWVLLRQLPLRTTRHFPAMSAVR” here?
Answer: Its protein production is “failed”.

Question: Which protein production does the source give for “MPKVYNSIVVDAPVERVWSRIRNFHDFSWAPSLIKSCKKVGGGGGYSVGARRLLNGEFLDTLIAYSEIERRIMYSMDEGPSPVSSGEIYNYVGNLHLLPVTIDDTTFVEWSGSWESASTEAVEYMNTVYRSLLADLAAEFTSESRRSEWIDQLEHHHHHH” here?
Answer: Its protein production is “not failed”.

Question: For “MVSSSNNSSIAKAFVTVAAIFIIFAGIKTAANILVPFLLSVFIAIICNPLINKASEYKIPKAVSVIFVIVVFVTMAVFLTGLVGSSLNELSQQIPQYRIQLKEQFTWLTSFLNSHDIQLSSSIVTEYFDPAAAMGLAADMLSSFGSVMTNLFLIILTVVFMLFESSTIPHKLHLALDDPQMRLNQIERFLSSVNQYIAIKTLVSIATGCIVSLMLWIFGLDFFLLWGVLAFLLNYIPNIGSIIAAVPPMTLAILQLSIGEAGAIGLGFVLINMVMGNIIEPRYLGKGLGLSTLVVFLSLIFWGWLLGTVGMLLSVPLTMILKIGLESSPEGRWLAVMLSDEVELVDKTEQALLD”, which protein production is on record?
Answer: Its protein production is “failed”.

Question: Which protein production does the source give for “MSVLQGFEEVNMTAPRGKLSMLVTKDVVRFNKATAIALGYPAYVKVLINDKTKQFAVKPCKQSDANAVKFSKPEGKQTASVNIKDVMVLDSVLKYFKLDEPQDGQVTFQSMQGTFYPEERVAMFSVADAKAGVMKKRGRKKSESEEA” here?
Answer: The protein production was “failed”.

Question: With “MTAETPSLTSPQAQRILRLYHLYRLTIGVVLVLLISSSLETELLQLANPNLFRSGCWLYLVFNILVVVLLERPSRQAQLFGLAMTDAIMLSGLFYAAGGPSSGIGNLLIASVAISNVLLRGRIGLLIAAVSAIGIIYLTFYISFGTPSVSNDYVQAGSLGALCFAAALLVQALTARLQVSEGLAEQRAADVDSLEELNALILQRMRTGIVVLDARRQVVLANQGALTLLGHERLVGQVIDAYSPQLVERLRQWLINPIMVPRSITTSSIGPVLQPSFAALNRGDQRQTLIFLEDLSQIAHQAQQLKLAALGRLTAGIAHEIRNPLGAVSHAAQLLNESEDLSAPDRRLGQIIHDQSQRIDRVIENVLQLSRRREAQPELLDLKVWLENFVSDFRSSAAADQSIHVQISSGMLTTRMDAGQLTQIITNLVQNGLRYSRRNHPSAQVWLNLHHDRESDLPILEVLDDGPGVSEQHLSKIFEPFFTTESKGTGLGLYLSRELCESNQAHLEYIPRPHDGGSCLRITFAHPFKTS” as the sequence, how does the protein production read?
Answer: The protein production was “failed”.

Question: For “MVVKFTKSEALHKEALEHIVGGVNSPSRSFKAVGGGAPIAMERGKGAYFWDVDGNKYIDYLAAYGPIITGHAHPHITKAITTAAENGVLYGTPTALEVKFAKMLKEAMPALDKVRFVNSGTEAVMTTIRVARAYTGRTKIMKFAGCYHGHSDLVLVAAGSGPSTLGTPDSAGVPQSIAQEVITVPFNNVETLKEALDKWGHEVAAILVEPIVGNFGIVEPKPGFLEKVNELVHEAGALVIYDEVITAFRFMYGGAQDLLGVTPDLTALGKVIGGGLPIGAYGGKKEIMEQVAPLGPAYQAGTMAGNPASMASGIACLEVLQQEGLYEKLDELGAMLEKGILEQAAKHNIDITLNRLKGALTVYFTTNTIEDYDAAQDTDGEMFGKFFKLMLQEGVNLAPSKYEAWFLTTEHTKEDIEYTIEAVGRAFAALADNK”, which protein production is on record?
Answer: Its protein production is “not failed”.

Question: For “MFKDKKMLKYIVIYSIIAFGILLTFNMVKDEMLYEKVDYSTFMQMLDKKEVKSVNFSGNQIEITPSDSSNLKGKILYTTNPAVAGITQPDLIKDLTAAGVGFNVTKPENYQLLGLLMSWVFPLILIFFVGRMMFSKMNNKMGGGVMSFGKNNAKLYAENETGITFKDVAGQDEAKESLVEIVDFLHDTRKYVEIGAKLPKGALLVGPPGTGKTLLAKAVAGEAKVPFFSMSGSDFVEMFVGMGAARVRDLFKQAEEKAPCIVFIDEIDAIGKSRDGAIQGNDEREQTLNQLLTEMDGFDSSKGVVILAATNRPEVLDKALLRPGRFDRRIIVDRPDLIGREEILKVHSRDVKLSDDVSLEEIAKSTPGAVGADLANIVNEAALRAVKHGRKFVIQEDLDEAVEVIIAGQEKRDRILSPKEKKIVAYHEVGHALVAALLNNTDPVHKITIVPRTMGALGYTMQLPEEEKYLVSKEEMIDQISVMLGGRAAEEVVFNSITTGASNDIERATQSARNMITIYGMSERFDMMALEAMSNRYLDGRPVRNCSETTAAIADEEVLQVIKKAHEKSIKILIENRELLDEITGVLLDKETIMGDEFMEIVYSKYPEKREADEKAKKEIQSLREQALAKRKEKEEAIKKAREEALRLEEEQRKQAELKAMIEAQEEAAKLARANNEANNDDLDSSKENEEVKSNVNDRATEEKKDDSSTNNKVDGE”, which protein production is on record?
Answer: The protein production was “failed”.

Question: For “MDHVQISVQKLDEILKLNGSALLNRVTLDIHQQLKSHCTCVVEVAHLQHAAHTISFASGGEISDNLSYHLSGTPCEKVAKDIGEHIFYQDQVYKRFPEDQMFQDDGVQAYLGLPLKTQSGEVLGILLSTFTRSIHAKEAQDVLELHRFYANVIIHSLREKWVSERSDKLLNQLSYEVSHDNLTGLLNRSCLADTLETLTQQATRPFNLAYLDIDNFKSINDINGNYIGDQIIKFTANAIQQSLSSPNNAFRVAGDEFAFITYDEDPVAVCQEVLDKIEAGYSDKSNRISFTVSIGIARAPVHMLNSDELILNASLALKDCKKHRDTRIQHYDTHLSALYHRQTQLIEAMRIQLSTSITESHELYVVLQPIVDVNNDRWDYFEILARWNSSVYGNISPAEFIEAAEQSGLIIELGERIIELACIAKQELEAHLGYTVKLSINCSAHELVDSNRYINHLTTLLERYGHDASDFVIELTETVLLSQSGREQMVLNSLRYLGFKVALDDFGTGYSSLNYIHNYPIDSIKIDATFVRNMLSNKTSEQVVYLIAQLAQLLDVDLIAEGVEDDRALNKLIDMGCHYIQGYFYSRPHNVDELVHMINDRQVKRA”, which protein production is on record?
Answer: Its protein production is “failed”.
